How the values were obtained:
[1] = target: T1, human IL-12RB1 overexpressed on 293T cells (Example 2) (human, UniProt P42701 24-662); experiment: FACS, hybridoma supernatant, 293T
T1 construct: whole, on cells

[2] = target: T2, cyno IL-12RB1 overexpressed on 293T cells (Example 2) (cyno, UniProt A0A2K5VWV1 24-662); experiment: FACS, hybridoma supernatant, 293T
T2 construct: whole, on cells

[3] = target: T3, IL-12 receptor endogenously expressed on THP-1 cells (UniProt P42701 24-662; Q99665 24-862); experiment: FACS, hybridoma supernatant, THP-1
T3 construct: whole, on cells

B1: 85801_03P23 (antibody, V domains shown)
VH: EVQLVESGGGLVQPGGSLRLSCAASGFTFSSYWMSWVRQAPGKGLEWVANIKQDGSEKYYVDSVKGRFTISRDNAKNSLYLQMNSLRAEDTAVYYCARGSIAAPFDYWGQGTLVTVSS
VL: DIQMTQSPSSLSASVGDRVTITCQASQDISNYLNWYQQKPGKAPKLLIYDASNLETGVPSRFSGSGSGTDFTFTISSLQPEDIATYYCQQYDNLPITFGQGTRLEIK
notes: also called 85801_03P23A
**Q.** How did the “Fold over parental 293T” value [1] turn out when B1 was run?
**A.** The value was 69 fold.

**Q.** And the “Fold over parental 293T” value [2]?
**A.** The value was 23 fold.

**Q.** What about the Fold over buffer [3] of the same binder?
**A.** The Fold over buffer was 39 fold.

B2: 85801_04M04 (antibody, V domains shown)
VH: QVQLVQSGAEVKKPGASVRVSCKASGYTFTSYYIHWVRQAPGQGLEWMGIINPSGGSTSYAQKFQGRVTMTRDTSTTTVYMELSSLRSEDTAVYYCAKSNWAYAFDIWGQGTMVTVSS
VL: SSELTQDPAVSVALGQTVRITCQGDSLSSYYAGWYQQKPGQAPVLVIYGKNNRPSGIPDRFSGSSSEDTASLTITGAQAEDEADYYCNSRDSSDNHLVFGGGTKLTVL
notes: also called 85801_04M04A
**Q.** For B2, which “Fold over parental 293T” value [1] is on record?
**A.** The value was 620 fold.

**Q.** What about the “Fold over parental 293T” value [2] of the same binder?
**A.** Its value is 195 fold.

**Q.** What about the Fold over buffer [3] of the same binder?
**A.** Its Fold over buffer is 12 fold.

B3: 85801_02011 (antibody, V domains shown)
VH: EVQLVESGGGLVQPGGSLRLSCAASGFTFSSYDMNWVRQAPGKGLEWISYINSRSSTIYYADSVKGRFTISRDNAKNSLYLQMNSLRDEDTALYYCAREIEDSMDVWGQGTTVTVSS
VL: QSVLTQPPSVSAAPGQKVTISCSGSSSNIGNNYVSWYQQLPGTAPKLLIYDNNERPSGIPDRFSGSKSGTSATLGITGLQPGDEADYYCGTWDSSLSAGVFGGGTKLTVL
notes: also called 85801_02O11A
**Q.** How did the “Fold over parental 293T” value [1] turn out when B3 was run?
**A.** The value was 114 fold.

**Q.** And the “Fold over parental 293T” value [2]?
**A.** The value was 56 fold.

**Q.** And the Fold over buffer [3]?
**A.** The Fold over buffer was 35 fold.

B4: 85801_04M12 (antibody, V domains shown)
VH: QVQLVESGGGVVQPGRSLRLSCAASGFTFSSHGMHWVRQAPGKGLEWVAIIWYAGNKKYYADSVKGRFTISRDNSKNTLYLQMNSLRAEDTAVYYCARESLLNSASDIWGQGTMVTVSS
VL: QSVLTQPPSVSAAPGQTVTISCSGSSSNIGNNYVSWYQQLPGTAPKLLIYDNNKRPSGIPDRFSGSKSGTSATLGITGLQTGDEADYYCGTWDSSLSAVVFGGGTKLTVL
notes: also called 85801_04M12A
**Q.** Which “Fold over parental 293T” value [1] does the source give for B4 here?
**A.** Its value is 192 fold.

**Q.** And the “Fold over parental 293T” value [2]?
**A.** The value was 71 fold.

**Q.** What about the Fold over buffer [3] of the same binder?
**A.** The Fold over buffer was 45 fold.

B5: 85801_01002 (antibody, V domains shown)
VH: QVQLVQSGAEVRKPGASVKVSCKASGYTFTDYYMHWVRQAPGQGLEWMGWINPDNGGANYAQRFLGRVTMTRDTSISTAYMELSRLRSDDTAVYYCAREGSGSPYAFDLWGLGTVVTVSS
VL: DIQLTQSPSFLSASVGDRVTITCRASQGISSYLAWYQQKPGKAPKLLIYAASTLQSGVPSRFSGSGSGTEFTLTISSLQPEDFATYCCQQLNRYPFTFGQGTKLEIK
notes: also called 85801_01O02A
**Q.** For B5, which “Fold over parental 293T” value [1] is on record?
**A.** The value was 107 fold.

**Q.** What about the “Fold over parental 293T” value [2] of the same binder?
**A.** Its value is 13 fold.

**Q.** What about the Fold over buffer [3] of the same binder?
**A.** Its Fold over buffer is 38 fold.

B6: 85801_04D14 (antibody, V domains shown)
VH: QVHLVQSGAEVKKPGASVKVSCKASGYTFIDYYMHWVRQAPGQGLEWMGWINPNSGGTHYSQKFQGRVTMTWDTSISTAYMELSRLTSDDTAVYYCAREGDYISSSAFDYWGQGTLVTVSS
VL: DIQLTQSPSFLSASVGDRVTITCRASQGISSYLAWYQQKPGKAPKVLIYAASTLQSGVPSRFSGSGSGTEFTLTISSLLPEDFATYFCQQLHRYPYTFGQGAKLEIK
notes: also called 85801_04D14A
**Q.** How did the “Fold over parental 293T” value [1] turn out when B6 was run?
**A.** Its value is 202 fold.

**Q.** And the “Fold over parental 293T” value [2]?
**A.** The value was 44 fold.

**Q.** And the Fold over buffer [3]?
**A.** The Fold over buffer was 17 fold.

B7: 85801_04M10 (antibody, V domains shown)
VH: QVQLQESGPGLVKPSETLSLTCTVSGGSISSYYWSWIRQPAGTGLEWIGRFYTSGSTIYNPSLESRVTMSVDTSKNQFSLKLSSVTAADTAVYYCATERDYPHDAFDIWGQGTMVTVSS
VL: DIQLTQSPSFLSASVGDRVTIPCRASQDISSFLAWYQQKPGKAPNLLIYAASTLQSGVPSRFSGSGSGTEFTLTISSLQPEDFATYYCQQLNGYPLTFGGGTKVEIK
notes: also called 85801_04M10A
**Q.** How did the “Fold over parental 293T” value [1] turn out when B7 was run?
**A.** Its value is 336 fold.

**Q.** And the “Fold over parental 293T” value [2]?
**A.** Its value is 122 fold.

**Q.** And the Fold over buffer [3]?
**A.** The Fold over buffer was 36 fold.

B8: 85801_02N03 (antibody, V domains shown)
VH: QVHLVQSGAEVKKPGASVKVSCEASGYTFTDYYIHWLRQAPGQGLEWMGWINPNSGGTHYAQKFQGRVTMTRDTSISTAYMELSRLSSDDTAVYYCAREGGWNYFSGMDVWGQGTTVTVSS
VL: DIQLTQSPSFLSASVGDRVTITCRASQGISSYLAWYQQQPGKPPKLLIYAASTLHSGVPSRFSGSGSGTEFTLTISSLQPEDFATYYCQQLNRYPYTCGQGTKLEIK
notes: also called 85801_02N03A
**Q.** B8 was tested. Which “Fold over parental 293T” value [1] did it give?
**A.** The value was 221 fold.

**Q.** What about the “Fold over parental 293T” value [2] of the same binder?
**A.** Its value is 85 fold.

**Q.** What about the Fold over buffer [3] of the same binder?
**A.** The Fold over buffer was 41 fold.

B9: 85801_02K24 (antibody, V domains shown)
VH: QVQLQESGPGLVKPSETLSLTCTVSGGSISSYDWSWIRQSAGKGLEWIGRIYTSGSTIYNPSLKSRVTMSVDTSKNEISLKLSSVTAADTAFYYCAKDRGNYPHDAFDIWGQGTMITVSS
VL: DIQLTQSPSFLSASVGDRVTITCRASQGISSFLAWYQQKPGKAPKLLIYAASTLQSGVPSRFSGSGSGTEFTLTISSLQPEDFATYYCQQLNGYPFTFGPGTKVDIK
notes: also called 85801_02K24A
**Q.** Which “Fold over parental 293T” value [1] does the source give for B9 here?
**A.** The value was 130 fold.

**Q.** What about the “Fold over parental 293T” value [2] of the same binder?
**A.** The value was 53 fold.

**Q.** What about the Fold over buffer [3] of the same binder?
**A.** Its Fold over buffer is 33 fold.

B10: 85801_01L02 (antibody, V domains shown)
VH: QVQLVHSGPEVKKPGASVKVSCKASGYTFTDYYMHWVRQAPGQGLEWMGWINPDSGGTNYAQKFQGRVTMTRDTSISTAYMELSRLRSDDTAVYHCAREGATSNFDYWGQGTLVTVSS
VL: DIQMTQSPSSLSASVGDRVTITCRASQGISNYLAWFQQKPGKAPTSLIYAASNLQGGVPSKFSGSGSGTDFTLTISSLQPEDFATYYCQQYRYYPFTFGPGTKVDIK
notes: also called 85801_01L02A
**Q.** Which “Fold over parental 293T” value [1] does the source give for B10 here?
**A.** The value was 117 fold.

**Q.** What about the “Fold over parental 293T” value [2] of the same binder?
**A.** The value was 32 fold.

**Q.** And the Fold over buffer [3]?
**A.** The Fold over buffer was 41 fold.

B11: 85801_04D10 (antibody, V domains shown)
VH: EVQLLESGGGLVQPGGSLRLSCAASGFTFSSYAMSWVRQAPGKGLEWVAGISGSGGGIYYADSVKGRFTISRDNSKNTLYLQLNSLRADDTAVYYCARRLIGYWYFDLWGRGTLVPVSS
VL: DIQMTQSPSSLSASVGDRVTITCRASQGISNYLAWFQQKPGKAPKSLIYAASSLQSGVPSKFSGSGSGTDFTLTISSLQPEDFATYYCQQYNSYPPTFGGGTKVEIK
notes: also called 85801_04D10A
**Q.** Which results are given for B11?
**A.** Fold over parental 293T [1]: 76 fold; Fold over parental 293T [2]: 20 fold; Fold over buffer [3]: 42 fold

B12: 85801_01M07 (antibody, V domains shown)
VH: QVQLVQSGAEVKKPGASVKVSCKASEYTFTDDYMHWVRQAPGQGLVWMGWINPNSGGTNYAQKFQGRVTMTRDTSISTAYMELSRLRSDDTAVYYCARGGLNWGWDWFDPWGQGTLVTVSS
VL: EIVLTQSPGTLSLSPGERATLSCRASQNINNNYLAWYQRKPGQAPRLLIYGASSRATGIPDRFSGSGSGTDFTLTISRLEPEDFAMYYCQQYGSSLTFGGGTKVEIK
notes: also called 85801_01M07A
**Q.** B12 was tested. Which “Fold over parental 293T” value [1] did it give?
**A.** The value was 91 fold.

**Q.** What about the “Fold over parental 293T” value [2] of the same binder?
**A.** Its value is 28 fold.

**Q.** What about the Fold over buffer [3] of the same binder?
**A.** The Fold over buffer was 7 fold.

B13: 85801_04G23 (antibody, V domains shown)
VH: QVQLVESGGGVVQPGRSLRLSCAASGFTFSSYGMHWVRQAPGKGLEWVAVIWNDGSNKYYADSVKGRFTISRDNSKNTLYLQMNSLRAEDTAVYYCARGELFFDYWGQGTLVTVSS
VL: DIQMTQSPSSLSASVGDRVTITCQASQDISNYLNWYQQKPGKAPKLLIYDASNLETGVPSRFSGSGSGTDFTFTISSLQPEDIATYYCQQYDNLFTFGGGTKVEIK
notes: also called 85801_04G23A
**Q.** What does the source list for B13?
**A.** Fold over parental 293T [1]: 73 fold; Fold over parental 293T [2]: 27 fold; Fold over buffer [3]: 46 fold

B14: 85801_01D14 (antibody, V domains shown)
VH: EVQLVESGGGLVKPGGSLRLSCAASGFTFSNAWMNWVRQAPGKGLEWVGRIKSKTDGGTTDYAAPVKGRFTVSRDDPKNTLYLQMNSLKTEDTAVYYCTTDPGWEFDYWGQGILVTVSS
VL: DIQMTQSPSSLSASVGDRVTITCQASQDISNFLNWYQQKPGKAPNLLIYDASDLETGVPSRFSGSGSGTDFTFTISSLQPEDIATYYCQQYDNLPLTFGGGTKVEIK
notes: also called 85801_01D14A
**Q.** How did the “Fold over parental 293T” value [1] turn out when B14 was run?
**A.** The value was 116 fold.

**Q.** What about the “Fold over parental 293T” value [2] of the same binder?
**A.** Its value is 52 fold.

**Q.** And the Fold over buffer [3]?
**A.** The Fold over buffer was 24 fold.

B15: 85801_05F05 (antibody, V domains shown)
VH: QVQLQQWGAGLLKPSETLSLTCAVYGGSFSGYYWNWIRQPPGKGLEWIGEINHSGSTHYNPSLKSRVTISVDTSKNQFSLKLSSVTAADTALYYCARALTGYFDYWGQGTLVTVSS
VL: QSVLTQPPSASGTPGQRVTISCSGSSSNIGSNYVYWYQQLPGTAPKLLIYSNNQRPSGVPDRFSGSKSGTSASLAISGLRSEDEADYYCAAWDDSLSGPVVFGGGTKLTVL
notes: also called 85801_05F05A
**Q.** For B15, which “Fold over parental 293T” value [1] is on record?
**A.** The value was 311 fold.

**Q.** What about the “Fold over parental 293T” value [2] of the same binder?
**A.** The value was 118 fold.

**Q.** And the Fold over buffer [3]?
**A.** Its Fold over buffer is 56 fold.
